B1: Nephrocystin-4 (Homo sapiens), O75161 (parent)
chain: MNDWHRIFTQNVLVPPHPQRARQPWKESTAFQCVLKWLDGPVIRQGVLEVLSEVECHLRVSFFDVTYRHFFGRTWKTTVKPTKRPPSRIVFNEPLYFHTSLNHPHIVAVVEVVAEGKKRDGSLQTLSCGFGILRIFSNQPDSPISASQDKRLRLYHGTPRALLHPLLQDPAEQNRHMTLIENCSLQYTLKPHPALEPAFHLLPENLLVSGLQQIPGLLPAHGESGDALRKPRLQKPITGHLDDLFFTLYPSLEKFEEELLELHVQDHFQEGCGPLDGGALEILERRLRVGVHNGLGFVQRPQVVVLVPEMDVALTRSASFSRKVVSSSKTSSGSQALVLRSRLRLPEMVGHPAFAVIFQLEYVFSSPAGVDGNAASVTSLSNLACMHMVRWAVWNPLLEADSGRVTLPLQGGIQPNPSHCLVYKVPSASMSSEEVKQVESGTLRFQFSLGSEEHLDAPTEPVSGPKVERRPSRKPPTSPSSPPAPVPRVLAAPQNSPVGPGLSISQLAASPRSPTQHCLARPTSQLPHGSQASPAQAQEFPLEAGISHLEADLSQTSLVLETSIAEQLQELPFTPLHAPIVVGTQTRSSAGQPSRASMVLLQSSGFPEILDANKQPAEAVSATEPVTFNPQKEESDCLQSNEMVLQFLAFSRVAQDCRGTSWPKTVYFTFQFYRFPPATTPRLQLVQLDEAGQPSSGALTHILVPVSRDGTFDAGSPGFQLRYMVGPGFLKPGERRCFARYLAVQTLQIDVWDGDSLLLIGSAAVQMKHLLRQGRPAVQASHELEVVATEYEQDNMVVSGDMLGFGRVKPIGVHSVVKGRLHLTLANVGHPCEQKVRGCSTLPPSRSRVISNDGASRFSGGSLLTTGSSRRKHVVQAQKLADVDSELAAMLLTHARQGKGPQDVSRESDATRRRKLERMRSVRLQEAGGDLGRRGTSVLAQQSVRTQHLRDLQVIAAYRERTKAESIASLLSLAITTEHTLHATLGVAEFFEFVLKNPHNTQHTVTVEIDNPELSVIVDSQEWRDFKGAAGLHTPVEEDMFHLRGSLAPQLYLRPHETAHVPFKFQSFSAGQLAMVQASPGLSNEKGMDAVSPWKSSAVPTKHAKVLFRASGGKPIAVLCLTVELQPHVVDQVFRFYHPELSFLKKAIRLPPWHTFPGAPVGMLGEDPPVHVRCSDPNVICETQNVGPGEPRDIFLKVASGPSPEIKDFFVIIYSDRWLATPTQTWQVYLHSLQRVDVSCVAGQLTRLSLVLRGTQTVRKVRAFTSHPQELKTDPKGVFVLPPRGVQDLHVGVRPLRAGSRFVHLNLVDVDCHQLVASWLVCLCCRQPLISKAFEIMLAAGEGKGVNKRITYTNPYPSRRTFHLHSDHPELLRFREDSFQVGGGETYTIGLQFAPSQRVGEEEILIYINDHEDKNEEAFCVKVIYQ
B2: Protein fantom (Homo sapiens), Q68CZ1-2 (parent)
chain: MSGPTDETAGDLPVKDTGLNLFGMGGLQETSTTRTMKSRQAVSRVSREELEDRFLRLHDENILLKQHARKQEDKIKRMATKLIRLVNDKKRYERVGGGPKRLGRDVEMEEMIEQLQEKVHELEKQNETLKNRLISAKQQLQTQGYRQTPYNNVQSRINTGRRKANENAGLQECPRKGIKFQDADVAETPHPMFTKYGNSLLEEARGEIRNLENVIQSQRGQIEELEHLAEILKTQLRRKENEIELSLLQLREQQATDQRSNIRDNVEMIKLHKQLVEKSNALSAMEGKFIQLQEKQRTLRISHDALMANGDELNMQLKEQRLKCCSLEKQLHSMKFSERRIEELQDRINDLEKERELLKENYDKLYDSAFSAAHEEQWKLKEQQLKVQIAQLETALKSDLTDKTEILDRLKTERDQNEKLVQENRELQLQYLEQKQQLDELKKRIKLYNQENDINADELSEALLLIKAQKEQKNGDLSFLVKVDSEINKDLERSMRELQATHAETVQELEKTRNMLIMQHKINKDYQMEVEAVTRKMENLQQDYELKVEQYVHLLDIRAARIHKLEAQLKDIAYGTKQYKFKPEIMPDDSVDEFDETIHLERGENLFEIHINKVTFSSEVLQASGDKEPVTFCTYAFYDFELQTTPVVRGLHPEYNFTSQYLVHVNDLFLQYIQKNTITLEVHQAYSTEYETIAACQLKFHEILEKSGRIFCTASLIGTKGDIPNFGTVEYWFRLRVPMDQAIRLYRERAKALGYITSNFKGPEHMQSLSQQAPKTAQLSSTDSTDGNLNELHITIRCCNHLQSRASHLQPHPYVVYKFFDFADHDTAIIPSSNDPQFDDHMYFPVPMNMDLDRYLKSESLSFYVFDDSDTQENIYIGKVNVPLISLAHDRCISGIFELTDHQKHPAGTIHVILKWKFAYLPPSGSITTEDLGNFIRSEEPEVVQRLPPASSVSTLVLAPRPKPRQRLTPVDKKVSFVDIMPHQSDVSQEGSVDEVKENTEKMQQGKDDVSLLSEGQLAEQSLASSEDETEITEDLEPEVEEDMSASDSDDCIIPGPISKNIKQPSEKIRIEIIALSLNDSQVTMDDTIQRLFVECRFYSLPAEETPVSLPKPKSGQWVYYNYSNVIYVDKENNKAKRDILKAILQKQEMPNRSLRFTVVSDPPEDEQDLECEDIGVAHVDLADMFQEGRDLIEQNIDVFDARADGEGIGKLRVTVEALHALQSVYKQYRDDLEA
partner: B1 chain

Variants of: B1
Settings: with RPGRIP1L

Row | Variant | effect of a mutation on the interaction
1 | G754R | decreasing interaction

Variants of: B2
Settings: with nphp4_human NPHP4, O75161

Row | Variant | effect of a mutation on the interaction
2 | T615P | decreasing interaction

— IntAct's records for PubMed 17558407
